For one substance, TYLCV transmission rate to tomato test plants (one insect/plant) by whiteflies fed anti-CypB antibody (2 μg/μl in 25% sucrose, 24 h) before virus acquisition; control fed 25% sucrose: 60% and TYLCV transmission rate to tomato test plants (one insect/plant) by whiteflies fed the Cyp inhibitor Cyclosporin A (2 μg/μl in 25% sucrose, 24 h) before virus acquisition; control fed 25% sucrose: 60% results are on record in PMC5109225.

For test [1], the target named is Bemisia tabaci B Cyclophilin B protein (Bemisia tabaci B (endogenous in whitefly adults)).
For test [2] the target is unchanged. The source holds these as a separate data set.

As for “Tomato yellow leaf curl virus coat protein (in virions) (natural protein)”, the TYLCV transmission rate to tomato test plants (one insect/plant) by whiteflies fed anti-CypB antibody (2 μg/μl in 25% sucrose, 24 h) before virus acquisition; control fed 25% sucrose: 60% in test [1] amounted to 17%. Besides, the TYLCV transmission rate to tomato test plants (one insect/plant) by whiteflies fed the Cyp inhibitor Cyclosporin A (2 μg/μl in 25% sucrose, 24 h) before virus acquisition; control fed 25% sucrose: 60% in test [2] came out at 27%.
